Numbering of substitutions follows the chain as printed. In names and notes the source's numbering stands.
B1: Rvb1 (enzyme)
chain: MVAISEVKENPGVNSSNSGAVTRTAAHTHIKGLGLDESGVAKRVEGGFVGQIEAREACGVIVDLIKAKKMSGRAILLAGGPSTGKTALALAISQELGPKVPFCPLVGSELYSVEVKKTETLMENFRRAIGLRIKETKEVYEGEVTELTPEDAENPLGGYGKTISHVIVGLKSAKGTKTLRLDPTIYESIQREKVSIGDVIYIEANTGAVKRVGRSDAYATEFDLETEEYVPLPKGEVHKKKEIVQDVTLHDLDVANARPQGGQDVISMMGQLLKPKKTEITEKLRQEVNKVVAKYIDQGVAELIPGVLFIDEVNMLDIEIFTYLNKALESNIAPVVVLASNRGMTTVRGTEDVISPHGVPPDLIDRLLIVRTLPYDKDEIRTIIERRATVERLQVESSALDLLATMGTETSLRYALQLLAPCGILAQTSNRKEIVVNDVNEAKLLFLDAKRSTKILETSANYL
B2: Rvb1-R366A (enzyme)
chain: B1 chain with R366A

Legend:
[1] = target: Rvb2 (S. cerevisiae, UniProt Q12464 1-471); experiment: SEC
Sequence of Rvb2 (Q12464 whole entry): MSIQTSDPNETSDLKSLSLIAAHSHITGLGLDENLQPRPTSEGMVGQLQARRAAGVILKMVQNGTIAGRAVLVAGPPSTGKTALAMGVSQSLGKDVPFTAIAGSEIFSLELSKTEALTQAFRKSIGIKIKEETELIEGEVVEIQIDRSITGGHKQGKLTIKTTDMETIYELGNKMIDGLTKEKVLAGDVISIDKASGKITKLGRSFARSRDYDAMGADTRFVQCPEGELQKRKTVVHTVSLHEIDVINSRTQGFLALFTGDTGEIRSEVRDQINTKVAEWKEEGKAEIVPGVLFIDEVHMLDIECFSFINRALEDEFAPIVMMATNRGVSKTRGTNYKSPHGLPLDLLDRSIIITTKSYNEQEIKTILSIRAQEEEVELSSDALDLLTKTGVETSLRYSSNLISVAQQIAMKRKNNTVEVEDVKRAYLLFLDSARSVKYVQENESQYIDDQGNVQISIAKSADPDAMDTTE

[2] = target: Rvb2-R350A (S. cerevisiae, UniProt Q12464 1-471, R350A); experiment: SEC
Sequence of Rvb2-R350A (Q12464 whole entry R350A): as the sequence (Q12464 whole entry) above, with R350A counted along it

Binder	binding result [1]	binding result [2]
B1	binds	binds
B2	binds	binds

Reference: paper PMC11118528 (bioRxiv, 2024)
